± gives the half width of the 95% confidence interval.
Columns and labels:
[1] = folding stability dG unfold from trypsin proteolysis; higher = more stable
In short: (§1)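 Unfolding free energy was derived, per protease or combined, against a sequence-predicted unfolded-state K50 and a shared folded-state K50, starting from K50 inferred by Bayesian fitting of sequencing counts. Digestion with trypsin and chymotrypsin was carried out on designed mini-proteins under 80 residues without cysteine in a PA-tagged cDNA display construct. Only designs with AlphaFold2 dimer inter-PAE above 15 were kept.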

[2] = folding stability dG unfold from chymotrypsin proteolysis; higher = more stable
In short: as §1

[3] = folding stability dG unfold (combined trypsin and chymotrypsin); higher = more stable
In short: as §1

Sequence	folding stability dG unfold [1] [kcal/mol]	folding stability dG unfold [2] [kcal/mol]	folding stability dG unfold [3] [kcal/mol]
SAGGSAGGSIPPDVPVDLGAEVEYFPPGGVRRVRFSAPDGTPVATATFVFRGGELVEVRIEPASAGGSAGGS [r12_264_TrMRF]	1.89 ± 0.053	2.07 ± 0.13	2.05 ± 0.15
SAGGSAGGSITTVTGVYKTPDGNPTAATFEVANKPDGTVTYTVTVPGTGKTFSTDSLDLVTVDGSAGGSAGG [r6_255_JUSTAS]	0.296 ± 0.027	0.563 ± 0.072	0.485 ± 0.042
SAGGSAGGSKAEIVSVEKLPEEGELYLVKIRVDGKTYTIAVPVGSTVTIDVPPGAEIEIRKLPSAGGSAGGS [r12_373_TrROS_Hall]	1.62 ± 0.038	2.619 ± 0.019	2.32 ± 0.046
SAGGSAGGSKEKTYVIKVTITNENGEEFTLELTVTMTEEEAEELAKKLKELYPNAKVTIEKLPSAGGSAGGS [r12_268_TrROS_Hall]	4.16 ± 0.21	4.09 ± 0.12	4.13 ± 0.16
SAGGSAGGSKGPVVILIFRPKYNPVKGIELEVEEVIVVSPEELSLSALGPALEEKEGYALILPSAGGSAGGS [r20_75_TrMRF]	1.26 ± 0.015	1.32 ± 0.068	1.37 ± 0.038
SAGGSAGGSKIKIIVPKEKEEEAERLAKELKEKGEIPEVEIEVVESEEEAKELEEKADLVIVVSAGGSAGGS [r12_679_TrROS_Hall]	-0.562 ± 0.43	1.11 ± 0.19	0.805 ± 0.31
SAGGSAGGSKKEEFYKITVYSPNKKAEEIAKKIQEETGTEIVEVKAEKFKDGGIKVIALVKKTSAGGSAGGS [r12_359_TrMRF]	-0.213 ± 0.19	-0.558 ± 0.67	-0.0936 ± 0.48
SAGGSAGGSKKIIRFKTKEEAEEALKKAKPGETLEITLPNGEKIEVKVTKVERVDGYYYIEVESAGGSAGGS [r12_907_TrROS_Hall]	2.53 ± 0.08	3.44 ± 0.077	3.13 ± 0.07
SAGGSAGGSKKIMIPGSPDTAFSTIKEWIRNGHEVPIYYYSPGNPEPVAEQEITIDEEENDELSAGGSAGGS [r12_241_TrROS]	-0.683 ± 0.3	-0.183 ± 0.21	-0.309 ± 0.2
SAGGSAGGSKKITIVVPTKEQAEALAKALEEAGYKVEKLPDGTLKITVDGKKIEVRIVPPKPKSAGGSAGGS [r12_204_TrROS_Hall]	1.28 ± 0.023	3.15 ± 0.047	2.7 ± 0.059
SAGGSAGGSKKKIKITVEKVDEEKGYYYVTIEIYDEETGELVEKKTIVAPSKEEALKALKELLSAGGSAGGS [r12_26_TrROS_Hall]	4.41 ± 0.32	3.5 ± 0.2	4.08 ± 0.35
SAGGSAGGSKKKKKITIEILIKLKPGESPEEIAKKLEEKLGLKVKKVEVVKENGYYLVKIEIESAGGSAGGS [r20_188_TrROS_Hall]	1.52 ± 0.038	3.26 ± 0.044	2.85 ± 0.084
SAGGSAGGSKKKKKKIKIKIVVNEDELAKKLGLSKEEVRKLAKELADELKKKGYEVEIEIIPPSAGGSAGGS [r12_576_TrROS_Hall]	1.87 ± 0.049	3.29 ± 0.054	2.89 ± 0.054
SAGGSAGGSKKKPPPVKVKIRVVVDGKVYEIEIEVDPNMTVEEIKEALRKLLGPDIKEVEIEPSAGGSAGGS [r12_300_TrROS_Hall]	2.91 ± 0.29	1.93 ± 0.25	3.07 ± 0.64
SAGGSAGGSKKKTIVILVPPGMSVDAIKKKLKELGIKVKIVPAPPVKVKVDEKTNELKVEKVTSAGGSAGGS [r12_80_TrROS_Hall]	0.874 ± 0.059	0.618 ± 0.086	0.657 ± 0.15
SAGGSAGGSKKKVKVKKFEKTKDADGNEVVKVFFEDDGKVVTLPEELADKLKEDDEFDLEDLASAGGSAGGS [r20_3_TrMRF]	-0.314 ± 0.077	0.381 ± 0.053	0.139 ± 0.1
SAGGSAGGSKKKVKVVKVEKLEDGSVRVLLYNEDGELVLEIEFPPGMTEEEVEELVKKLLEELSAGGSAGGS [r12_798_TrROS_Hall]	2.47 ± 0.1	2.72 ± 0.13	2.69 ± 0.13
SAGGSAGGSKKKVVIEVVIKVKKEDEEKIKKALEKELEKLGFKVKEVKVERTKNYVKVTVVLESAGGSAGGS [r12_731_TrROS_Hall]	2.7 ± 0.17	3.89 ± 0.2	3.63 ± 0.28
SAGGSAGGSKKKYIIKVKIYNENGELVEEKEIEAESEEEALEALAKNPNISKEEITKIEVYELSAGGSAGGS [r12_182_TrROS_Hall]	2.24 ± 0.041	2.1 ± 0.054	2.19 ± 0.08
SAGGSAGGSKKPIDIKIEDVDHRRNPNGQPYMKIRIEIPGKPLLSYTFPPGASVEDFLKNILSSAGGSAGGS [r20_115_TrROS]	1.1 ± 0.033	0.96 ± 0.1	1.09 ± 0.057
